Measurements: US11906524B2, “Urea biosensors and uses thereof” (Duke University, priority 2015, dated 2024)
Where two headings read alike, the source gives them in different places.

Key:
Format in all cases: binding
[1] = Temperature- and urea-dependent fluorescence landscapes of fluorescent conjugates (Roche LightCycler); design: key: y, yes; n, no; settings: Acrylodan conjugate; fluorescent response to urea
Method in brief: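 Acrylodan or Badan was attached to single-cysteine csUBP7 mutants and fluorescence was recorded over 0–4.8 M urea in 20 mM KCl, 20 mM MOPS (pH 7.4), with temperature stepped by 1K. Urea Kd came from ratiometric single-site fits, and Kd values across temperatures were fit to the Gibbs-Helmholtz equation.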

[2] = Urea titration of emission intensity spectra (Nanodrop3300) with ratiometric analysis, singly labeled conjugates; settings: urea
Excerpt: (§1) Determination of emission intensity spectra.
(§2) Ratiometric analysis of urea binding. […] 2
(§3) For a single urea-binding site, the fractional saturation is given by
(§4) [formula] where [L] is the ligand (urea) concentration and Kd the dissociation constant, ^trueKd for ytrue.
(§5) [formula] where ^appIλ2 and ^satIλ2 are the emission intensities of the monochromatic signal at wavelength λ2 of the ligand-free and ligand-bound protein, respectively.

[3] = as above; design: key: m, monochromatic; d, dichromatic (i.e. spectral shape change); settings: urea response
Excerpt: as §1, §2, §3, §4, §5

[4] = as above; design: key: m, monochromatic; d, dichromatic (i.e. spectral shape changes); 0, no change; settings: urea response
Excerpt: as §1, §2, §3, §4, §5

[5] = ctUBP6 Acrylodan conjugate, nb = no binding, read-out: ^appKd
[6] = ctUBP6 Badan conjugate, ^d = noisy data and or bad fit, read-out: ^appKd
[7] = ctUBP6 Badan conjugate, ^d = noisy data and or bad fit, read-out: ^trueKd
[8] = ctUBP6 Acrylodan conjugate, nb = no binding, read-out: ^trueKd

| Kd [2, 5] | Kd [2, 6] | Kd [2, 7] | Kd [2, 8] | Molecule | Response [1] | Shape ([3]; ctUBP6 Acrylodan conjugate) | Shape ([3]; ctUBP6 Badan conjugate) | Shape ([4]; ctUBP6 Acrylodan conjugate) | Shape ([4]; ctUBP6 Badan conjugate) |
| --- | --- | --- | --- | --- | --- | --- | --- | --- | --- |
| 520 µM | 620 µM | 500 µM | – | ctUBP6 T96C: ctUBP6 96C cysteine mutant (SEQ ID NO: 50), tested as Acrylodan and Badan conjugates (conjugate, Acrylodan or Badan conjugate; ctUBP6_96C (96C substitution mutant with signal peptide replaced with M and a GGSHHHHHH at C-terminus)) MVEEPVDNKPGTDTSAEDTIKVGILHSLSGTMAISEVSLKDAELMAIEEINQAGGLLGKKIEPVIEDGASDWPTFAEKAKKLLQNDKVATVFGCWCSASRKAVLPVFEENNGLLWYPVQYEGMESSPNIFYTGAAPNQQIVPAVEWLLENKGKRFFLLGSDYVFPRTANKIIKAQLSAIGGELIAEEYTPLGHTDYSTIVNKIKTAKPDVVFNTLNGDSNVAFFKQLKDAGITSEDITVCSVSVAEEEIRGIGAENIKGHLVSWNYYQTTDTPENKEFVEKYKSKYGSDRVTDDPIEAAYIAVHLWAEAVKKAGSFEVEKVKEAAKGLEFKAPEGLVKIEGENQHLWKPVRIGEVQEDGLIKEIWSTSEAVRPDPYLKTYDWAKGLSDGGSHHHHHH | n | d | d | – | – |
| 150 µM | 310 µM | 340 µM | 110 µM | ctUBP6 L191C: ctUBP6 191C cysteine mutant (SEQ ID NO: 54), tested as Acrylodan and Badan conjugates (conjugate, Acrylodan or Badan conjugate; ctUBP6_191C (191C substitution mutant with signal peptide replaced with M and a GGSHHHHHH at C-terminus)) MVEEPVDNKPGTDTSAEDTIKVGILHSLSGTMAISEVSLKDAELMAIEEINQAGGLLGKKIEPVIEDGASDWPTFAEKAKKLLQNDKVATVFGCWTSASRKAVLPVFEENNGLLWYPVQYEGMESSPNIFYTGAAPNQQIVPAVEWLLENKGKRFFLLGSDYVFPRTANKIIKAQLSAIGGELIAEEYTPCGHTDYSTIVNKIKTAKPDVVFNTLNGDSNVAFFKQLKDAGITSEDITVCSVSVAEEEIRGIGAENIKGHLVSWNYYQTTDTPENKEFVEKYKSKYGSDRVTDDPIEAAYIAVHLWAEAVKKAGSFEVEKVKEAAKGLEFKAPEGLVKIEGENQHLWKPVRIGEVQEDGLIKEIWSTSEAVRPDPYLKTYDWAKGLSDGGSHHHHHH | y | – | – | m | m |
| 23000 µM | 9400 µM | 11000 µM | 22000 µM | ctUBP6 F164C: ctUBP6 164C cysteine mutant (SEQ ID NO: 53), tested as Acrylodan and Badan conjugates (conjugate, Acrylodan or Badan conjugate; ctUBP6_164C (164C substitution mutant with signal peptide replaced with M and a GGSHHHHHH at C-terminus)) MVEEPVDNKPGTDTSAEDTIKVGILHSLSGTMAISEVSLKDAELMAIEEINQAGGLLGKKIEPVIEDGASDWPTFAEKAKKLLQNDKVATVFGCWTSASRKAVLPVFEENNGLLWYPVQYEGMESSPNIFYTGAAPNQQIVPAVEWLLENKGKRFFLLGSDYVCPRTANKIIKAQLSAIGGELIAEEYTPLGHTDYSTIVNKIKTAKPDVVFNTLNGDSNVAFFKQLKDAGITSEDITVCSVSVAEEEIRGIGAENIKGHLVSWNYYQTTDTPENKEFVEKYKSKYGSDRVTDDPIEAAYIAVHLWAEAVKKAGSFEVEKVKEAAKGLEFKAPEGLVKIEGENQHLWKPVRIGEVQEDGLIKEIWSTSEAVRPDPYLKTYDWAKGLSDGGSHHHHHH | y | d | d | – | – |
